Patent US20180105595A1

Tests used:
[1] = target: 2D8 scFv (anti-WTE)-CD8 hinge region-CD28a-CD28b-CD137-CD3ζ chimeric antigen receptor on T lymphocytes (human) (UniProt P01732); assay: cell-based or functional assay
[2] = target: human EGFRvIII (human) (UniProt P00533); assay: cell-based or functional assay

Sequence of UniProt P01732 (P01732 other isoform, or with tags, fused parts or gaps mutant limits assumed): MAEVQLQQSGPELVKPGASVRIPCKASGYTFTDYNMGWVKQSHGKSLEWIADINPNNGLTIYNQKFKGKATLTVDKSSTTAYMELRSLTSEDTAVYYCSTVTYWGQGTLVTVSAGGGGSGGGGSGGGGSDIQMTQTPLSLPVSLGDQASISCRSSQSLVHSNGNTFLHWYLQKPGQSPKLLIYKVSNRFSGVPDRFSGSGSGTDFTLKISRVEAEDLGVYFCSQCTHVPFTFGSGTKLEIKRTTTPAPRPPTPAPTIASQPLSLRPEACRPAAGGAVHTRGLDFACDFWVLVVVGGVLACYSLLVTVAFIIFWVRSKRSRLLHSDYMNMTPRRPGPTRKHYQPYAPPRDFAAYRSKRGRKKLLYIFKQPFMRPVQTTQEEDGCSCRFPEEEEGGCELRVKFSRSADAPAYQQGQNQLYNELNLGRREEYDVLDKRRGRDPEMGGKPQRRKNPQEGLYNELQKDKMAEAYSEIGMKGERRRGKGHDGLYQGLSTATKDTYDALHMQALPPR

Molecule: WTE polypeptide (free) (from UniProt P00533 1189-1210)
- reduction of WTE-CH12-mediated cytotoxicity of CAR+ T cells on U87MG-EGFRvIII, free WTE polypeptide at 2-fold molar concentration of WTE-CH12, against Experimental group 1 [1]: 31.1%
- reduction of WTE-CH12-mediated cytotoxicity of CAR+ T cells on U87MG-EGFRvIII, free WTE polypeptide at 20-fold molar concentration of WTE-CH12, against Experimental group 1 [1]: 87.8%

B1: anti-human EGFRvIII WTE-CH12 antibody (antibody, V domains shown)
VH: DVQLQESGPGLVKPSQSLSLTCTVTAYSVTSDYAWNWIRQFPGNKLEWMGYISYSGTTRYNPSLKSRISITRDTSKNQFFLQLNSMTAEDTATYYCSRQGRGFPYWGQGTLVTVSA
VL: DILMTQSPSSMSVSLGDTVSITCHASQDINSNIGWLQQKPGKSFKGLIYHGTNLEDGVPSRFSGSGSGADYSLTISSLESEDFADYYCVQYAQFPWTFGGGTKLEIKR
- cytotoxicity % (LDH release) of anti-WTE CAR+ T cells on Huh-7-EGFRvIII cells at 10^4 ng/ml WTE-CH12, effector:target 3:1 [2]: 93%
- cytotoxicity % (LDH release) of anti-WTE CAR+ T cells on U87MG-EGFRvIII cells at 10^4 ng/ml WTE-CH12, effector:target 10:1 [2]: 98.3%
